{"source": "paper PMC6786648", "target": "EXP1 with G to L point mutations of the first glycine residues of the two GXXG motifs of the TM domain, Ty-tagged (P. falciparum) (UniProt Q8IIF0)", "assay": "cross-linking; in vivo: parasite cultures in PBS with 1% formaldehyde (PFA), 37°C, 30 minutes, quenched with 30 mM Tris-HCl pH 8.0; extracts of treated and untreated cells immunoblotted with α-Ty"}
{"substance": "EXP1 with G to L point mutations of the first glycine residues of the two GXXG motifs of the TM domain, Ty-tagged (from UniProt Q8IIF0 1-162) (natural protein)", "values": [{"measurement": "stoichiometry N", "value": 2}]}
